Assay results: patent US20250228958A1, “TSP1 INHIBITOR” (Daiichi Sankyo Company, Limited, priority 2022, published 2025)
Positions of bridges follow the written chain, without caps; N, C: chain ends. Non-standard residues stand in square brackets, D forms with d. No end group written: not given here. 2Nal = N[C@@H](Cc1ccc2ccccc2c1)C(=O)O; Gly(cPent) = N[C@H](C(=O)O)C1CCCC1; 4Pal = N[C@@H](Cc1ccncc1)C(=O)O; Agb = N=C(N)NCC[C@H](N)C(=O)O; Pen = CC(C)(S)[C@H](N)C(=O)O; Phg = N[C@H](C(=O)O)c1ccccc1; Tle = CC(C)(C)[C@H](N)C(=O)O; hCys = N[C@@H](CCS)C(=O)O

Molecular target: Thrombospondin human platelet (Calbiochem, 605225) (human, UniProt P07996 19-1170)
Sequence (P07996 19-1170 limits assumed): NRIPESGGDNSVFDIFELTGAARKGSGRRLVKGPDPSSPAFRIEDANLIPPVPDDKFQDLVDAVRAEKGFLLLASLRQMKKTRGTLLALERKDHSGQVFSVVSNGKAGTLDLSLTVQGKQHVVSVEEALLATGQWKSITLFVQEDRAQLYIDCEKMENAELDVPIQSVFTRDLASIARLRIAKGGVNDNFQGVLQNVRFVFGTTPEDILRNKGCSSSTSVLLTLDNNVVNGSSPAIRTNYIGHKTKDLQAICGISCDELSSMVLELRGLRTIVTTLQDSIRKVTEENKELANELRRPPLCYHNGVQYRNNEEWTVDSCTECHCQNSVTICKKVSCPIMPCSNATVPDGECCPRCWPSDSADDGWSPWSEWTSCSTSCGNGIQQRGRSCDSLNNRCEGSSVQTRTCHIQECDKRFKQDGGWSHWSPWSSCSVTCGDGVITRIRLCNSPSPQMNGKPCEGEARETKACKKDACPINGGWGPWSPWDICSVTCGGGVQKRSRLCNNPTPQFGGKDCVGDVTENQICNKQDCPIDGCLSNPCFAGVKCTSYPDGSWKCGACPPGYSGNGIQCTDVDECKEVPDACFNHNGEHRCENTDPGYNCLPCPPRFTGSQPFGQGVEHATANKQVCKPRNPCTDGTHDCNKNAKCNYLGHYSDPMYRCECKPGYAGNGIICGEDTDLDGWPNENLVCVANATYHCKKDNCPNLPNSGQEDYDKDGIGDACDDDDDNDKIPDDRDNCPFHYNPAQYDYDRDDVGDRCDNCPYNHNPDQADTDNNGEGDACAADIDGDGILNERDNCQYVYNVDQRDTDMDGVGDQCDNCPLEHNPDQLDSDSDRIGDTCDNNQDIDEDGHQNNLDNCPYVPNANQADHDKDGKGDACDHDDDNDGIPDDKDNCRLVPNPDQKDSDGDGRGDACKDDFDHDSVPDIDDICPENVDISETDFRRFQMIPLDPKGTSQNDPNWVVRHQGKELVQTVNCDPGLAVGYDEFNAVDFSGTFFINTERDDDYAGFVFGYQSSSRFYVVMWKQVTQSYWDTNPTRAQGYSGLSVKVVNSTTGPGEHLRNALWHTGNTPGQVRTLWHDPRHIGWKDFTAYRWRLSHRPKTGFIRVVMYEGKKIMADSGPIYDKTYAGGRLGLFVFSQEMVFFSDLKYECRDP
Assay: cell-based or functional assay

| Binder | IC50 for inhibition of cell adhesion (HUVEC to coated human TSP1) [nM] |
| --- | --- |
| [2Nal]R[hCys]G[Agb]DW[hCys]RW[Gly(cPent)]C-NH2 (disulfide 3-8; bridge N-12; not fully specified (N-terminus, bridges)) [Peptide-9] | 22.4 |
| [2Nal]R[hCys]GRNW[hCys]VW[Gly(cPent)]C-NH2 (disulfide 3-8; bridge N-12; not fully specified (N-terminus, bridges)) [Peptide-7] | 31.1 |
| [2Nal]R[hCys]G[Agb]NW[hCys][Phg]W[Gly(cPent)]C-NH2 (disulfide 3-8; bridge N-12; not fully specified (N-terminus, bridges)) [Peptide-4] | 33.8 |
| [2Nal]R[hCys]GRDW[hCys]RW[Gly(cPent)]C-NH2 (disulfide 3-8; bridge N-12; not fully specified (N-terminus, bridges)) [Peptide-11] | 26 |
| [2Nal][Agb][hCys]G[Agb]NW[hCys]RW[Gly(cPent)]C-NH2 (disulfide 3-8; bridge N-12; not fully specified (N-terminus, bridges)) [Peptide-2] | 20 |
| [2Nal]R[hCys]GRNW[hCys]RWVC-NH2 (disulfide 3-8; bridge N-12; not fully specified (N-terminus, bridges)) [Peptide-12] | 18.6 |
| [2Nal]RSG[Agb]NWVRW[Gly(cPent)]C (bridge N-12; not fully specified (N-terminus, C-terminus, bridges); also: C-terminus amide-bonded to a linker (not defined)) [Peptide-115] | 17.5 |
| [2Nal][Tle][hCys]GRNW[hCys]RW[Gly(cPent)]C-NH2 (disulfide 3-8; bridge N-12; not fully specified (N-terminus, bridges)) [Peptide-8] | 12.6 |
| [2Nal][Phg][hCys]G[Agb]NW[hCys]RW[Gly(cPent)]C-NH2 (disulfide 3-8; bridge N-12; not fully specified (N-terminus, bridges)) [Peptide-3] | 29.9 |
| [2Nal]RCGRDW[hCys]RW[Gly(cPent)]C-NH2 (disulfide 3-8; bridge N-12; not fully specified (N-terminus, bridges)) [Peptide-126] | 10.8 |
| [2Nal]R[hCys]G[Agb]NW[hCys]RW[Gly(cPent)]C-NH2 (disulfide 3-8; bridge N-12; not fully specified (N-terminus, bridges)) [Peptide-1] | 12.6 |
| [2Nal]R[hCys]G[Agb]NW[hCys][4Pal]W[Gly(cPent)]C-NH2 (disulfide 3-8; bridge N-12; not fully specified (N-terminus, bridges)) [Peptide-5] | 23.6 |
| [2Nal]R[hCys]GRDW[hCys]RW[Gly(cPent)]C-NH2 (linker 3-8 via acetone bridge (-S-CH2-CO-CH2-S-); bridge N-12; not fully specified (N-terminus, bridges)) [Peptide-125] | 305 |

Other lines, results leading:

| IC50 for inhibition of cell adhesion (HUVEC to coated human TSP1) [nM] | Binder |
| --- | --- |
| 14.2 | [2Nal]RCGRDW[hCys]RW[Gly(cPent)]C-NH2 (bridge 3-8, N-12; not fully specified (N-terminus, bridges)) [Peptide-131] |
| 8.4 | [2Nal]RCGRDWCRW[Gly(cPent)]C-NH2 (disulfide 3-8; bridge N-12; not fully specified (N-terminus, bridges)) [Peptide-128] |
| 11.6 | [2Nal]R[hCys]GRDW[hCys]RW[Gly(cPent)]C-NH2 (bridge 3-8, N-12; not fully specified (N-terminus, bridges)) [Peptide-127] |
| 80.6 | [2Nal]R[Pen]GRDWCRW[Gly(cPent)]C-NH2 (bridge 3-8, N-12; not fully specified (N-terminus, bridges)) [Peptide-137] |
| 208 | [2Nal]R[Pen]GRDW[hCys]RW[Gly(cPent)]C-NH2 (disulfide 3-8; bridge N-12; not fully specified (N-terminus, bridges)) [Peptide-135] |
| 7 | [2Nal]R[hCys]GRDWCRW[Gly(cPent)]C-NH2 (bridge 3-8, N-12; not fully specified (N-terminus, bridges)) [Peptide-132] |
| 102 | [2Nal]R[hCys]GRDW[Pen]RW[Gly(cPent)]C-NH2 (disulfide 3-8; bridge N-12; not fully specified (N-terminus, bridges)) [Peptide-134] |
| 125 | [2Nal]R[Pen]GRDW[hCys]RW[Gly(cPent)]C-NH2 (bridge 3-8, N-12; not fully specified (N-terminus, bridges)) [Peptide-133] |
| 30.9 | [2Nal]RCGRDW[Pen]RW[Gly(cPent)]C-NH2 (bridge 3-8, N-12; not fully specified (N-terminus, bridges)) [Peptide-139] |
| 43.7 | [2Nal]R[hCys]GRDWCRW[Gly(cPent)]C-NH2 (disulfide 3-8; bridge N-12; not fully specified (N-terminus, bridges)) [Peptide-129] |
| 162 | [2Nal]R[hCys]GRDW[Pen]RW[Gly(cPent)]C-NH2 (bridge 3-8, N-12; not fully specified (N-terminus, bridges)) [Peptide-136] |
| 92.5 | [2Nal]RCGRDW[Pen]RW[Gly(cPent)]C-NH2 (disulfide 3-8; bridge N-12; not fully specified (N-terminus, bridges)) [Peptide-138] |
| 7.7 | [2Nal]RCGRDWCRW[Gly(cPent)]C-NH2 (bridge 3-8, N-12; not fully specified (N-terminus, bridges)) [Peptide-130] |
